Measured values published in the supplement of paper PMC10567573.
± gives the standard deviation.

Test: protein stability index of a GFP-peptide fusion (GPS, HEK-293T) (PSI 1-6); higher = more stable
Conditions: c terminus: a fixed tail appended
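Also: 24-mer peptide tiles fused after GFP, lentivirally expressed, FACS-sorted into six equal bins by GFP/DsRed ratio, decoded by Illumina sequencing, PSI is the read-weighted mean bin number.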

Row | Sequence | protein stability index (treatment: DMSO) | protein stability index (treatment: MLN4924 1 uM, 8 h)
1 | MRYLRNHCLDQVGLFRKSGVKSRI [DLC1] | 2.64 ± 0.36 | 2.64 ± 0.37
2 | MSAKLGKSSSLLTQTSEECNGILT [ZNF396] | 3.99 ± 0.16 | 4.2 ± 0.22
3 | MSNQQEKYEAQNIVNSTEESDDAF [IQUB] | 5.65 ± 0.18 | 5.47 ± 0.29
4 | MSQTGSHPGRGLAGRWLWGAQPCL [ADAMTS4] | 3 ± 0.38 | 2.28 ± 0.87
5 | MTELRQRVAHEPVAPPEDKESESE [CDS2] | 5.39 ± 0.26 | 5.44 ± 0.23
6 | MTGTPKTQEGAKDLEVDMNKTEVT [ACSBG2] | 5.64 ± 0.35 | 5.68 ± 0.27
7 | MWPPDPDPDPDPEPAGGSRPGPAV [CMTM3] | 5.02 ± 0.062 | 5.124 ± 0.016
8 | NAAHSLLSTNDKTIKLWKITERDK [PPP2R2C] | 3.68 ± 0.085 | 3.82 ± 0.27
9 | NCPGQYTFSMPSDSHVSSCSEDWV [CD69] | 3.8 ± 0.21 | 4.06 ± 0.22
10 | NDIMAYMFGFFFGRTPLIKLSPKK [CDS2] | 2.03 ± 0.31 | 2.08 ± 0.22
11 | NGSCENSDASSHANAAKHTQDSAR [EHMT1] | 5.27 ± 0.37 | 5.3 ± 0.2
12 | NHLQTHDPNKMAFGCEECGKKYNT [PLAGL1] | 4.14 ± 0.16 | 4.77 ± 0.27
13 | NHMYSCRFSRQCVVDKDKRNQCRY [HNF4A] | 2.61 ± 0.057 | 2.56 ± 0.074
14 | NILIYETPRGPDPALLEATGGAAG [KCTD13] | 3.88 ± 0.19 | 3.84 ± 0.45
15 | NIPFFPDLQITDQVALLRLTWSEL [NR2F2] | 2.68 ± 0.45 | 2.12 ± 0.58
16 | NIQAGINENDFYDGAWCAGRNDLQ [CPXM2] |  | 3.48 ± 0.71
17 | NIRSARGNNPNGREAKMICFKSVA [ELOA2] | 3.4 ± 0.15 | 3.34 ± 0.27
18 | NITVVKGIRLSENVIDRMKESSPS [CHCHD3] | 3.66 ± 0.29 | 3.51 ± 0.28
19 | NKKAKRYLLHGLECVVAMHQAQLI [EIF5] | 3.02 ± 0.47 | 2.5 ± 0.4
20 | NKRLAKYRMRNVHPKPKLVRVLES [CLCN6] | 3.1 ± 0.33 | 3 ± 0.29
21 | NKTEVTPRLWTTCRDGEVLLRLSK [ACSBG2] | 2.4 ± 0.22 | 2.37 ± 0.21
22 | NLQDLCRIKIRQCIGLQNLKLLDE [ASB7] | 3.57 ± 0.24 | 3.56 ± 0.31
23 | NNDDDEDEDDEDEDEDEDEDEDED [TAF7L] | 5.57 ± 0.15 | 5.55 ± 0.23

Row | Sequence | protein stability index (treatment: DMSO) | protein stability index (treatment: MLN4924 1 uM, 8 h)
24 | NNPISEHFHPTVIGESMYGDFEEA [TENT5C] | 4.89 ± 0.28 | 4.89 ± 0.17
25 | NNQSDLEKEMQKMNPYKIDIGAVY [PRIM1] | 3.03 ± 0.24 | 3.03 ± 0.16
26 | NPKDCSENIEVKEGGLYFERRPVA [SPSB2] | 4.68 ± 0.17 | 4.76 ± 0.058
27 | NPQSPPQDSSVTSKRNIKKGAVPR [HDAC6] | 4.99 ± 0.43 | 5.14 ± 0.38
28 | NQQLRNELQLEQSRAANQEQRAND [CEP70] | 5.48 ± 0.11 | 5.42 ± 0.24
29 | NQRMKSKRWQKNNWPKNSNGVTQK [NANOGP8] | 3.89 ± 0.44 | 4.2 ± 0.42
30 | NQTAELRELLEFTHMYLQSDDEME [P3H4] | 4.83 ± 0.19 | 4.7 ± 0.18
31 | NQTALHLAAAHGHSEVVEELVSAD [RIPK4] | 5.46 ± 0.082 | 5.36 ± 0.11
32 | NRDEVLDNLLAFVCDIRPEIHENY [ATP6V1G1] | 2.49 ± 0.51 | 2.71 ± 0.37
33 | NRQCLCSAESMVEYGTCMCLVKGI [SPRY1] | 3.82 ± 0.28 | 3.83 ± 0.26
34 | NRSLAEACSEGDVNAVRKLLIEGR [ANKRD17] | 4.01 ± 0.26 | 4.12 ± 0.27
35 | NSMPVDNRNHNEGMVTRCIIEVLS [CHGB] | 2.77 ± 0.14 | 2.59 ± 0.3
36 | NSTGGDCFYRGYTSGVAAVQDWYH [SCNN1D] | 2.36 ± 0.16 | 2.43 ± 0.5
37 | NVPNVCRMYCSDLLNPNLKDTVIC [SPACA3] | 2.15 ± 0.3 | 2.31 ± 0.28
38 | NVPRICGVCGDRATGFHFNAMTCE [VDR] | 2.83 ± 0.39 | 2.73 ± 0.2
39 | NYEKLSRGLRYYYDKNIIHKTAGK [ETS1] | 2.69 ± 0.15 | 2.89 ± 0.43
40 | NYGKILVEKNEHCIENNIDLQVNR [R3HDM1] | 3.56 ± 0.33 | 3.75 ± 0.19
41 | NYMKILLKVGGILVMPIEDQLTQI [PCMTD1] | 3.08 ± 0.75 | 2.88 ± 0.8
42 | PAAPTPESFTVHFLPLNSAQTLHH [DNAAF3] | 2.87 ± 0.22 | 3.02 ± 0.23
43 | PAEDPDDYDDGFSMKHTATARFQR [SMARCE1] | 4.81 ± 0.13 | 4.89 ± 0.17
44 | PAPAPLVPQDPDLEEEEEEEDLVL [ZBTB22] | 5.59 ± 0.33 | 5.69 ± 0.2
45 | PAPERTMAGLSKEPNTLRAPRVRT [VENTX] | 4.86 ± 0.29 | 4.85 ± 0.32
